Source: PMC8065591 (2021)
Bridges are numbered along the chain shown (N, C = ends). [ ]: non-standard residue; d: D form. Aph(Hor) = 4-amino-phenylalanine(L-hydroorotic acid); dPhe(4-NHCONH2) = NC(=O)Nc1ccc(C[C@@H](N)C(=O)O)cc1; Cpa = not defined here; Ahx = NCCCCCC(=O)O

target: somatostatin receptor type 2 (SST2) (Homo sapiens, UniProt P30874); test: saturation binding of radioligand on HEK-SST2 cell membranes
Sequence (P30874 whole entry): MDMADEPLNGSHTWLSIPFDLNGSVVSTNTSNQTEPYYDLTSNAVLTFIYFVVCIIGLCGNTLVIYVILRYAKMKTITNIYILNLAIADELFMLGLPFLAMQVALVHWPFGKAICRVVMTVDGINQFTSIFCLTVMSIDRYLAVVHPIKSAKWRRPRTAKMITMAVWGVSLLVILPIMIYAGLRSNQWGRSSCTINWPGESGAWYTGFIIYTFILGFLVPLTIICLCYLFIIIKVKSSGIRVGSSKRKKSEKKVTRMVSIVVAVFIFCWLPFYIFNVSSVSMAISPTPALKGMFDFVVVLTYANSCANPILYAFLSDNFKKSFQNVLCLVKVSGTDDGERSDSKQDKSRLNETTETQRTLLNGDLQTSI

Kd [nM] | Binder
0.6 | {(99mTc)Tc‑N4-Cpa}-[dC][Aph(Hor)][dPhe(4-NHCONH2)]KTC[dY]-NH2 (disulfide 1-6 (inferred); reading uncertain; also: 99mTc complex, printed as Cpa-c(dCys-Aph(Hor)-dAph(Cbm)-Lys-Thr-Cys)-dTyr-NH2) [[99mTc]Tc-N4-JR11]
0.92 | {(99mTc)Tc‑N4-Cpa}-[dC]Y[dW]KTC[dY]-NH2 (disulfide 1-6 (inferred); reading uncertain; also: 99mTc complex) [[99mTc]Tc-N4-SS01]

The remaining lines, values behind:

Binder | Kd [nM]
{(99mTc)Tc‑HYNIC/EDDA-Ahx-Cpa}-[dC]Y[dW]KTC[dY]-NH2 (disulfide 1-6 (inferred); reading uncertain; also: 99mTc complex, EDDA coligand) [[99mTc]Tc-HYNIC-Ahx-SS01] | 1.6
{(99mTc)Tc‑HYNIC/EDDA-Ahx-Cpa}-[dC][Aph(Hor)][dPhe(4-NHCONH2)]KTC[dY]-NH2 (disulfide 1-6 (inferred); reading uncertain; also: 99mTc complex, EDDA coligand, printed as Cpa-c(dCys-Aph(Hor)-dAph(Cbm)-Lys-Thr-Cys)-dTyr-NH2) [[99mTc]Tc-HYNIC-Ahx-JR11] | 0.85
